Measurements as given in patent publication US20130109581A1, “POSITIVELY CHARGED SPECIES AS BINDING REAGENTS IN THE SEPARATION OF PROTEIN AGGREGATES FROM MONOMERS” (priority 2009, published 2013).

Experiments:
Abeta 1-40 monomer = Abeta 1-40 monomer (UniProt P05067); assay: MPA bead capture, Abeta 1-40 read-out of the CSF sample (noise)
Abeta 1-42 globulomer [1] = target: Abeta 1-42 globulomer (UniProt P05067); assay: MPA bead capture, CSF + 1 ng/mL globulomer, Abeta immunoassay
Abeta 1-42 globulomer [2] = target: Abeta 1-42 globulomer (UniProt P05067); assay: 42 (globulomer) RLU over 40 (Abeta 1-40 monomer) RLU
[3] = target: Abeta (1-42) aggregates from Alzheimer's Disease Brain Homogenate (human) (UniProt P05067); assay: MPA, AD brain homogenate in CSF, Abeta(1-42) ELISA
[4] = target: Abeta (1-42) aggregates from Alzheimer's Disease Brain Homogenate (human) (UniProt P05067); assay: MPA, AD brain homogenate in plasma, Abeta(1-42) ELISA

| Substance | average RLU (40) (Abeta 1-40 monomer) [RLU] | average RLU (42) (Abeta 1-42 globulomer [1]) [RLU] | 42:40 ratio (Abeta 1-42 globulomer [2]) | limit of detection [3] [mL/assay] | limit of detection [4] [mL/assay] |
| --- | --- | --- | --- | --- | --- |
| link-FKFKKK (peptide) | 198 | – | – | – | – |
| link-KKKFKF (peptide) | 279 | – | – | – | – |
| link-kkkfkf (peptide) | 254 | 1600 | 6.3 | – | – |
| peptoid +++++++ | – | – | – | 1.6 | 2.5 |
